Biological target: glucagon receptor (rat ventricular myocardium) (rat (endogenous in Sprague-Dawley rat right ventricle)) (UniProt P30082)
Chain of UniProt P30082 (P30082 27-485): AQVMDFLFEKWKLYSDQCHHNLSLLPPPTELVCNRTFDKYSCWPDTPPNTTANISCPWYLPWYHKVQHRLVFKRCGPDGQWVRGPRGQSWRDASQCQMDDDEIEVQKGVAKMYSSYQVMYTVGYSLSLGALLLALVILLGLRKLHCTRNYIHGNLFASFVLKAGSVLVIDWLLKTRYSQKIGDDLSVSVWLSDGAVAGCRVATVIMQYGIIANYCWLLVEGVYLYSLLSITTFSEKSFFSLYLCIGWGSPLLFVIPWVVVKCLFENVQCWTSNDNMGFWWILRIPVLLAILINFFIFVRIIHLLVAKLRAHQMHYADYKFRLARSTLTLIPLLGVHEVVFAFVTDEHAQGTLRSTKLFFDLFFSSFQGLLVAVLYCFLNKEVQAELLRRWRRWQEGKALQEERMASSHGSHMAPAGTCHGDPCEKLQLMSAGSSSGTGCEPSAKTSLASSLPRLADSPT

Chain of glucagon (P01275 53-81): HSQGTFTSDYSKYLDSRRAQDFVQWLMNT

Emax of the inotropic response (percent increase in contractility over baseline) of rat right ventricle strips to glucagon (1–1000 nM), in the absence of IBMX: 40%
Emax of the inotropic response (percent increase in contractility over baseline) of rat right ventricle strips to glucagon (1–1000 nM), in the presence of 30 µM IBMX: 75%
–log EC50 of the positive inotropic response (contractility) of electrically driven rat right ventricle strips to glucagon (1–1000 nM), glucagon alone: 7.1 –log EC50
Substance: glucagon (from UniProt P01275 53-81) (ligand)

From PMC10230788
